From patent US20210388110A1 (published 2021) come the findings set out here.

One may read the Kd as the equilibrium constant for the complex coming apart. The low end stands for higher affinity, the high end for lower affinity.

This assay addresses T1, soluble human GPC3 (human, UniProt P51654 25-563, limits assumed).
T1 construct: soluble human GPC3 as analyte; also called glypican 3
In words: SPR (Biacore), soluble human GPC3.

T1 sequence (P51654 other isoform, or with tags, fused parts or gaps limits assumed, form in doubt): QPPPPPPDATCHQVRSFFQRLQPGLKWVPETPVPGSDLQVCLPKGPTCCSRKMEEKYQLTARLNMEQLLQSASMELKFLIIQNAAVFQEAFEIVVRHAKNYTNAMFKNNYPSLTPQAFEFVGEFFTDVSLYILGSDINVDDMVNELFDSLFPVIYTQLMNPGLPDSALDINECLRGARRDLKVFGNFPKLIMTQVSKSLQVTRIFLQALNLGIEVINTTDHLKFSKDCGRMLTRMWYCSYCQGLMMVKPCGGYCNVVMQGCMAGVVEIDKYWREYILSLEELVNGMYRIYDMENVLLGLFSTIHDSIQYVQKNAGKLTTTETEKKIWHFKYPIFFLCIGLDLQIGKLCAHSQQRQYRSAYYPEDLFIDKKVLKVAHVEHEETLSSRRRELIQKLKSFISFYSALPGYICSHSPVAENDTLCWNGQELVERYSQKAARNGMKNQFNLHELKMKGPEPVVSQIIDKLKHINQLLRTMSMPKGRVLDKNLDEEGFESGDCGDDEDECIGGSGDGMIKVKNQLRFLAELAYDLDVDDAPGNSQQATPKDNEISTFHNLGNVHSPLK

B1: H0610-G1dh/none-Hi-Kn010G3/L0237-k0 (antibody, human IgG1, kappa)
heavy: not shown
chain: EPKSSDKTHTCPPCPAPELLGGPSVFLFPPKPKDTLMISRTPEVTCVVVDVSHEDPEVKFNWYVDGVEVHNAKTKPREEQYNSTYRVVSVLTVLHQDWLNGKEYKCKVSNKALPAPIEKTISKAKGQPREPQVCTLPPSRDELTKNQVSLWCLVKGFYPSDIAVEWESNGQPENNYKTTPPVLDSDGSFFLYSKLTVDKSRWQQGNVFSCSVMHEALHNRYTQKSLSLSP
light: DIVMTQSPLSLPVTPGEPASISCRSSQEPVHSNRNTYIHWYQQKPGQAPRLLIYKVSNRFSGVPDRFSGSGSGTDFTLKISRVEAEDVGVYYCYQGTQVPYTFGQGTKLEIKRTVAAPSVFIFPPSDEQLKSGTASVVCLLNNFYPREAKVQWKVDNALQSGNSQESVTEQDSKDSTYSLSSTLTLSKADYEKHKVYACEVTHQGLSSPVTKSFNRGEC
notes: single-arm (one Fab)
In turn, B1 displayed an equilibrium dissociation constant (Kd) of 1.31 nM.

B2: H0610-G1dh/none-Hi-Kn010G3/L0249-k0 (antibody, human IgG1, kappa)
heavy: not shown
chain: EPKSSDKTHTCPPCPAPELLGGPSVFLFPPKPKDTLMISRTPEVTCVVVDVSHEDPEVKFNWYVDGVEVHNAKTKPREEQYNSTYRVVSVLTVLHQDWLNGKEYKCKVSNKALPAPIEKTISKAKGQPREPQVCTLPPSRDELTKNQVSLWCLVKGFYPSDIAVEWESNGQPENNYKTTPPVLDSDGSFFLYSKLTVDKSRWQQGNVFSCSVMHEALHNRYTQKSLSLSP
light: DIVMTQSPLSLPVTPGEPASISCRPSQSPVHSNRNTYIQWYQQKPGQAPRLLIYKVSNRFSGVPDRFSGSGSGTDFTLKISRVEAEDVGVYYCSQGTQVPYTFGQGTKLEIKRTVAAPSVFIFPPSDEQLKSGTASVVCLLNNFYPREAKVQWKVDNALQSGNSQESVTEQDSKDSTYSLSSTLTLSKADYEKHKVYACEVTHQGLSSPVTKSFNRGEC
notes: single-arm (one Fab)
B2 yielded a dissociation constant (Kd) of 0.00686 nM. Compared with the last molecule, the Kd is about 190-fold lower.

B3: H0610-G1dh/none-Hi-Kn010G3/L0238-k0 (antibody, human IgG1, kappa)
heavy: not shown
chain: EPKSSDKTHTCPPCPAPELLGGPSVFLFPPKPKDTLMISRTPEVTCVVVDVSHEDPEVKFNWYVDGVEVHNAKTKPREEQYNSTYRVVSVLTVLHQDWLNGKEYKCKVSNKALPAPIEKTISKAKGQPREPQVCTLPPSRDELTKNQVSLWCLVKGFYPSDIAVEWESNGQPENNYKTTPPVLDSDGSFFLYSKLTVDKSRWQQGNVFSCSVMHEALHNRYTQKSLSLSP
light: DIVMTQSPLSLPVTPGEPASISCRSSEPPVHSNRNTYLHWYQQKPGQAPRLLIYKVSNRFSGVPDRFSGSGSGTDFTLKISRVEAEDVGVYYCYQGTQVPYTFGQGTKLEIKRTVAAPSVFIFPPSDEQLKSGTASVVCLLNNFYPREAKVQWKVDNALQSGNSQESVTEQDSKDSTYSLSSTLTLSKADYEKHKVYACEVTHQGLSSPVTKSFNRGEC
notes: single-arm (one Fab)
Molecule B3 displayed a dissociation constant (Kd) of 0.637 nM. This Kd lies about 93-fold higher than the previous one.

B4: H0610-G1dh/none-Hi-Kn010G3/L0246-k0 (antibody, human IgG1, kappa)
heavy: not shown
chain: EPKSSDKTHTCPPCPAPELLGGPSVFLFPPKPKDTLMISRTPEVTCVVVDVSHEDPEVKFNWYVDGVEVHNAKTKPREEQYNSTYRVVSVLTVLHQDWLNGKEYKCKVSNKALPAPIEKTISKAKGQPREPQVCTLPPSRDELTKNQVSLWCLVKGFYPSDIAVEWESNGQPENNYKTTPPVLDSDGSFFLYSKLTVDKSRWQQGNVFSCSVMHEALHNRYTQKSLSLSP
light: DIVMTQSPLSLPVTPGEPASISCRSSQSPVHSNRNTYIQWYQQKPGQAPRLLIYKVSNRFSGVPDRFSGSGSGTDFTLKISRVEAEDVGVYYCSQGTQVPYTFGQGTKLEIKRTVAAPSVFIFPPSDEQLKSGTASVVCLLNNFYPREAKVQWKVDNALQSGNSQESVTEQDSKDSTYSLSSTLTLSKADYEKHKVYACEVTHQGLSSPVTKSFNRGEC
notes: single-arm (one Fab)
Turning to B4, binding was characterised by a dissociation constant (Kd) of 0.00121 nM.

B5: H0610-G1dh/none-Hi-Kn010G3/L0258-k0 (antibody, human IgG1, kappa)
heavy: not shown
chain: EPKSSDKTHTCPPCPAPELLGGPSVFLFPPKPKDTLMISRTPEVTCVVVDVSHEDPEVKFNWYVDGVEVHNAKTKPREEQYNSTYRVVSVLTVLHQDWLNGKEYKCKVSNKALPAPIEKTISKAKGQPREPQVCTLPPSRDELTKNQVSLWCLVKGFYPSDIAVEWESNGQPENNYKTTPPVLDSDGSFFLYSKLTVDKSRWQQGNVFSCSVMHEALHNRYTQKSLSLSP
light: DIVMTQSPLSLPVTPGEPASISCRSSQPPVHSNRNTYLHWYQQKPGQAPRLLIYKVSNRFSGVPDRFSGSGSGTDFTLKISRVEAEDVGVYYCTQGTQVPYTFGQGTKLEIKRTVAAPSVFIFPPSDEQLKSGTASVVCLLNNFYPREAKVQWKVDNALQSGNSQESVTEQDSKDSTYSLSSTLTLSKADYEKHKVYACEVTHQGLSSPVTKSFNRGEC
notes: single-arm (one Fab)
With B5, the dissociation constant Kd amounted to 0.000352 nM. This Kd is about 3.4-fold lower than that of the molecule before.

B6: H0610-G1dh/none-Hi-Kn010G3/L0240-k0 (antibody, human IgG1, kappa)
heavy: not shown
chain: EPKSSDKTHTCPPCPAPELLGGPSVFLFPPKPKDTLMISRTPEVTCVVVDVSHEDPEVKFNWYVDGVEVHNAKTKPREEQYNSTYRVVSVLTVLHQDWLNGKEYKCKVSNKALPAPIEKTISKAKGQPREPQVCTLPPSRDELTKNQVSLWCLVKGFYPSDIAVEWESNGQPENNYKTTPPVLDSDGSFFLYSKLTVDKSRWQQGNVFSCSVMHEALHNRYTQKSLSLSP
light: DIVMTQSPLSLPVTPGEPASISCRSSESPVHSNRNTYLHWYQQKPGQAPRLLIYKVSNRFSGVPDRFSGSGSGTDFTLKISRVEAEDVGVYYCYQGTQVPYTFGQGTKLEIKRTVAAPSVFIFPPSDEQLKSGTASVVCLLNNFYPREAKVQWKVDNALQSGNSQESVTEQDSKDSTYSLSSTLTLSKADYEKHKVYACEVTHQGLSSPVTKSFNRGEC
notes: single-arm (one Fab)
B6 yielded a Kd of 0.848 nM.

B7: H0610-G1dh/none-Hi-Kn010G3/L0242-k0 (antibody, human IgG1, kappa)
heavy: not shown
chain: EPKSSDKTHTCPPCPAPELLGGPSVFLFPPKPKDTLMISRTPEVTCVVVDVSHEDPEVKFNWYVDGVEVHNAKTKPREEQYNSTYRVVSVLTVLHQDWLNGKEYKCKVSNKALPAPIEKTISKAKGQPREPQVCTLPPSRDELTKNQVSLWCLVKGFYPSDIAVEWESNGQPENNYKTTPPVLDSDGSFFLYSKLTVDKSRWQQGNVFSCSVMHEALHNRYTQKSLSLSP
light: DIVMTQSPLSLPVTPGEPASISCRSSESPVHSNRNTYIHWYQQKPGQAPRLLIYKVSNRFSGVPDRFSGSGSGTDFTLKISRVEAEDVGVYYCYQGTQVPYTFGQGTKLEIKRTVAAPSVFIFPPSDEQLKSGTASVVCLLNNFYPREAKVQWKVDNALQSGNSQESVTEQDSKDSTYSLSSTLTLSKADYEKHKVYACEVTHQGLSSPVTKSFNRGEC
notes: single-arm (one Fab)
B7 gave a dissociation constant (Kd) of 1.19 nM.

B8: H0610-G1dh/none-Hi-Kn010G3/L0248-k0 (antibody, human IgG1, kappa)
heavy: not shown
chain: EPKSSDKTHTCPPCPAPELLGGPSVFLFPPKPKDTLMISRTPEVTCVVVDVSHEDPEVKFNWYVDGVEVHNAKTKPREEQYNSTYRVVSVLTVLHQDWLNGKEYKCKVSNKALPAPIEKTISKAKGQPREPQVCTLPPSRDELTKNQVSLWCLVKGFYPSDIAVEWESNGQPENNYKTTPPVLDSDGSFFLYSKLTVDKSRWQQGNVFSCSVMHEALHNRYTQKSLSLSP
light: DIVMTQSPLSLPVTPGEPASISCRPSQSPVHSNRNTYIQWYQQKPGQAPRLLIYKVSNRFSGVPDRFSGSGSGTDFTLKISRVEAEDVGVYYCYQGTQVPYTFGQGTKLEIKRTVAAPSVFIFPPSDEQLKSGTASVVCLLNNFYPREAKVQWKVDNALQSGNSQESVTEQDSKDSTYSLSSTLTLSKADYEKHKVYACEVTHQGLSSPVTKSFNRGEC
notes: single-arm (one Fab)
In turn, B8 registered an equilibrium dissociation constant (Kd) of 0.0555 nM.

B9: H0610-G1dh/none-Hi-Kn010G3/L0239-k0 (antibody, human IgG1, kappa)
heavy: not shown
chain: EPKSSDKTHTCPPCPAPELLGGPSVFLFPPKPKDTLMISRTPEVTCVVVDVSHEDPEVKFNWYVDGVEVHNAKTKPREEQYNSTYRVVSVLTVLHQDWLNGKEYKCKVSNKALPAPIEKTISKAKGQPREPQVCTLPPSRDELTKNQVSLWCLVKGFYPSDIAVEWESNGQPENNYKTTPPVLDSDGSFFLYSKLTVDKSRWQQGNVFSCSVMHEALHNRYTQKSLSLSP
light: DIVMTQSPLSLPVTPGEPASISCRSSESPVHSNRNTYLHWYQQKPGQAPRLLIYKVSNRFRGVPDRFSGSGSGTDFTLKISRVEAEDVGVYYCGQGTQVPYTFGQGTKLEIKRTVAAPSVFIFPPSDEQLKSGTASVVCLLNNFYPREAKVQWKVDNALQSGNSQESVTEQDSKDSTYSLSSTLTLSKADYEKHKVYACEVTHQGLSSPVTKSFNRGEC
notes: single-arm (one Fab)
Turning to B9, the affinity, expressed as Kd, was 0.874 nM.

B10: H0610-G1dh/none-Hi-Kn010G3/L0243-k0 (antibody, human IgG1, kappa)
heavy: not shown
chain: EPKSSDKTHTCPPCPAPELLGGPSVFLFPPKPKDTLMISRTPEVTCVVVDVSHEDPEVKFNWYVDGVEVHNAKTKPREEQYNSTYRVVSVLTVLHQDWLNGKEYKCKVSNKALPAPIEKTISKAKGQPREPQVCTLPPSRDELTKNQVSLWCLVKGFYPSDIAVEWESNGQPENNYKTTPPVLDSDGSFFLYSKLTVDKSRWQQGNVFSCSVMHEALHNRYTQKSLSLSP
light: DIVMTQSPLSLPVTPGEPASISCRSSEPPVHSNRNTYLHWYQQKPGQAPRLLIYKVSNRFRGVPDRFSGSGSGTDFTLKISRVEAEDVGVYYCGQGTQVPYTFGQGTKLEIKRTVAAPSVFIFPPSDEQLKSGTASVVCLLNNFYPREAKVQWKVDNALQSGNSQESVTEQDSKDSTYSLSSTLTLSKADYEKHKVYACEVTHQGLSSPVTKSFNRGEC
notes: single-arm (one Fab)
In the case of B10, binding was characterised by a dissociation constant (Kd) of 0.649 nM. This Kd and that of the molecule before are within 1.5-fold of each other.

B11: H0610-G1dh/none-Hi-Kn010G3/L0261-k0 (antibody, human IgG1, kappa)
heavy: not shown
chain: EPKSSDKTHTCPPCPAPELLGGPSVFLFPPKPKDTLMISRTPEVTCVVVDVSHEDPEVKFNWYVDGVEVHNAKTKPREEQYNSTYRVVSVLTVLHQDWLNGKEYKCKVSNKALPAPIEKTISKAKGQPREPQVCTLPPSRDELTKNQVSLWCLVKGFYPSDIAVEWESNGQPENNYKTTPPVLDSDGSFFLYSKLTVDKSRWQQGNVFSCSVMHEALHNRYTQKSLSLSP
light: DIVMTQSPLSLPVTPGEPASISCRSSQSPVHSNRNTYIQWYQQKPGQAPRLLIYKVSNRFSGVPDRFSGSGSGTDFTLKISRVEAEDVGVYYCTQGTQVPYTFGQGTKLEIKRTVAAPSVFIFPPSDEQLKSGTASVVCLLNNFYPREAKVQWKVDNALQSGNSQESVTEQDSKDSTYSLSSTLTLSKADYEKHKVYACEVTHQGLSSPVTKSFNRGEC
notes: single-arm (one Fab)
B11: the Kd was determined as 0.0107 nM. This Kd is about 61-fold lower than that of the molecule before.

B12: H0610-G1dh/none-Hi-Kn010G3/L0259-k0 (antibody, human IgG1, kappa)
heavy: not shown
chain: EPKSSDKTHTCPPCPAPELLGGPSVFLFPPKPKDTLMISRTPEVTCVVVDVSHEDPEVKFNWYVDGVEVHNAKTKPREEQYNSTYRVVSVLTVLHQDWLNGKEYKCKVSNKALPAPIEKTISKAKGQPREPQVCTLPPSRDELTKNQVSLWCLVKGFYPSDIAVEWESNGQPENNYKTTPPVLDSDGSFFLYSKLTVDKSRWQQGNVFSCSVMHEALHNRYTQKSLSLSP
light: DIVMTQSPLSLPVTPGEPASISCRSSQSPVHSNRNTYIHWYQQKPGQAPRLLIYKVSNRFSGVPDRFSGSGSGTDFTLKISRVEAEDVGVYYCTQGTQVPYTFGQGTKLEIKRTVAAPSVFIFPPSDEQLKSGTASVVCLLNNFYPREAKVQWKVDNALQSGNSQESVTEQDSKDSTYSLSSTLTLSKADYEKHKVYACEVTHQGLSSPVTKSFNRGEC
notes: single-arm (one Fab)
B12 returned a Kd of 0.334 nM.
